Assay results reported in US20040146519A1.
Values belong to the binder of their own block, whether it stands above or below them.

What was measured:
HLA-A*0206 (human) [1] = assay: competition with 125I probe peptide for purified HLA; settings: remark: other sources report otherwise
HLA-DRB1*1501 (human) = molecular target: T1, HLA-DRB1*1501 (human); assay: competition with 125I probe peptide, purified HLA; settings: remark: other sources report otherwise
T1 chain 1: not shown
T1 chain 2: not shown

HLA-DRB1*1302 (human) = molecular target: T2, HLA-DRB1*1302 (human); assay: competition with 125I probe peptide, purified HLA; settings: remark: other sources report otherwise
T2 chain 1: not shown
T2 chain 2: not shown

HLA-A*3101 (human) = assay: competition with 125I probe peptide for purified HLA; settings: remark: other sources report otherwise
HLA-B*5301 (human) = assay: inhibition of 125I probe peptide, purified HLA; settings: remark: other sources report otherwise
HLA-B*5401 (human) = assay: inhibition of 125I probe peptide, purified HLA; settings: remark: other sources report otherwise
HLA-B*0702 (human) = assay: inhibition of 125I probe peptide, purified HLA; settings: remark: other sources report otherwise
HLA-A*0206 (human) [2] = assay: inhibition of 125I probe peptide, purified HLA; settings: remark: other sources report otherwise
HLA-B*5101 (human) = assay: inhibition of 125I probe peptide, purified HLA; settings: remark: other sources report otherwise
HLA-A*0201 (human) = assay: competitive inhibition of 125I probe peptide, purified HLA

- IC50 (HLA-A*0206 (human) [1]): 80 nM
Binder: YLSGANLNV [CEA.605V9]

- IC50 (HLA-DRB1*1501 (human)): 827 nM
- IC50 (HLA-DRB1*1302 (human)): 318 nM
Binder: RWCIPWQRLLLTASL [CEA.10]

- IC50 (HLA-A*3101 (human)): 6.2 nM
Binder: RTLTLLSVTR [CEA.376]

- IC50 (HLA-B*5301 (human)): 40 nM
- IC50 (HLA-B*5401 (human)): 137 nM
Binder: YPNASLLI [CEA.102]

- IC50 (HLA-A*3101 (human)): 9 nM
Binder: RVLTLFNVTR [CEA.554.V2]

- IC50 (HLA-B*5301 (human)): 930 nM
- IC50 (HLA-B*0702 (human)): 212 nM
Binder: LPQHLFGYSI [CEA.58.I10]

- IC50 (HLA-A*0206 (human) [2]): 80 nM
Binder: YLSGANLNV [CEA.605.V9]

- IC50 (HLA-B*5101 (human)): 19 nM
- IC50 (HLA-B*0702 (human)): 39 nM
- IC50 (HLA-B*5401 (human)): 270 nM
Binder: IPWQRLLLTI [CEA.13.I10]

- IC50 (HLA-B*5401 (human)): 3.2 nM
Binder: IPWQRLLLTA [CEA.13, 10 AA]

- relative binding ratio (IC50 standard/IC50 peptide) (HLA-A*0201 (human)): 0.0022
Binder: SLLTFWNPPT [CEA peptide, position 23, 10 amino acids]

- IC50 (HLA-A*3101 (human)): 5 nM
Binder: RTLTLFNVTR [CEA.554]
